Results as given in patent US20240294646A1.

Legend:
FcγRIIb [1] = biological target: FcγRIIb (UniProt P31994); assay: SPR (Protocol 2), antibody captured on immobilised HER2, receptor as analyte
FcγRIIaR = FcγRIIaR (UniProt P12318); assay: as above
FcγRIIb [2] = biological target: FcγRIIb (UniProt P31994); assay: SPR (Protocol 2); ratio of the fold for FcγRIIb to the fold for FcγRIIaR
[3] = biological target: Soluble FcγRIIb extracellular domain with C-terminal 10×His tag (UniProt P31994); assay: SPR (Biacore 4000), antibody captured on immobilised HER2, soluble receptor as analyte
[4] = biological target: Soluble FcγRIIaR extracellular domain with C-terminal 10×His tag (UniProt P12318); assay: as above
C1q (human) = C1q (human) (UniProt P02745); assay: ELISA; antibody coated, human C1q added, signal as % of WT
Sequence of C1q (human) (P02745 23-245 limits assumed, chain 1 of 3): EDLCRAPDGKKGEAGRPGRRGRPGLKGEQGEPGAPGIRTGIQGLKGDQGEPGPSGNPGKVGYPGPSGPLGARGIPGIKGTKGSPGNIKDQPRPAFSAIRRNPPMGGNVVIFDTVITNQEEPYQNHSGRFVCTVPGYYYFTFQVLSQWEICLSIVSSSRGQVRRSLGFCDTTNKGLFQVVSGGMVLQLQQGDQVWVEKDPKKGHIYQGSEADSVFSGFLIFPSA
Sequence of C1q (human) (P02746 28-253 limits assumed, chain 2 of 3, further chain): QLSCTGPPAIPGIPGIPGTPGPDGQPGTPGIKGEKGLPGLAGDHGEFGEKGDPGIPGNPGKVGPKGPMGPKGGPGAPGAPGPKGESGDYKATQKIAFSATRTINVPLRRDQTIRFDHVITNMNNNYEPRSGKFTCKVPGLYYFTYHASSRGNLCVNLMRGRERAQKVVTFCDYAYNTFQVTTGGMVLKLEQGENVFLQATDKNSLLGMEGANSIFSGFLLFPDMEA
Sequence of C1q (human) (P02747 29-245 limits assumed, chain 3 of 3, further chain): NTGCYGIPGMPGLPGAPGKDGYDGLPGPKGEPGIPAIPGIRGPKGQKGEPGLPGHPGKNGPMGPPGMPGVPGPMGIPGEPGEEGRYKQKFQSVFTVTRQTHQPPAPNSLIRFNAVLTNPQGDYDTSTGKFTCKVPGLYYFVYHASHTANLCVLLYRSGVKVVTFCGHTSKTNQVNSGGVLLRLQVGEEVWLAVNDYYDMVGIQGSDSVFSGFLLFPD

Sequence of Soluble FcγRIIaR extracellular domain with C-terminal 10×His tag (P12318 other isoform, or with tags, fused parts or gaps): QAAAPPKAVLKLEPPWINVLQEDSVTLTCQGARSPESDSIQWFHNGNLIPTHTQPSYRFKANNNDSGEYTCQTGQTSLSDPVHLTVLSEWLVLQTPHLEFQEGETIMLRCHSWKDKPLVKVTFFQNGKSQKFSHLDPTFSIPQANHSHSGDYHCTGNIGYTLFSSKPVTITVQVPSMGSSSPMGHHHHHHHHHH
Sequence of FcγRIIb (P31994 43-217): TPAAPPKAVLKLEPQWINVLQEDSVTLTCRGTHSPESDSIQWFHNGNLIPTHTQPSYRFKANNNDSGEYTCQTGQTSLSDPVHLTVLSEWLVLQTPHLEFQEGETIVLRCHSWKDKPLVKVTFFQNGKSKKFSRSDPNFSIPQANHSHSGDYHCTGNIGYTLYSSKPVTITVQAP
Sequence of Soluble FcγRIIb extracellular domain with C-terminal 10×His tag (P31994 other isoform, or with tags, fused parts or gaps): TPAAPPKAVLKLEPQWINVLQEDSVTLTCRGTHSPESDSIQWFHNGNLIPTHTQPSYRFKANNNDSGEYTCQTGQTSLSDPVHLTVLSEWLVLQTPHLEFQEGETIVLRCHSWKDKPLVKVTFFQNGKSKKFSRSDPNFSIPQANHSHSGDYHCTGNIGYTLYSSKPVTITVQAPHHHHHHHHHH
Sequence of FcγRIIaR (P12318 34-217): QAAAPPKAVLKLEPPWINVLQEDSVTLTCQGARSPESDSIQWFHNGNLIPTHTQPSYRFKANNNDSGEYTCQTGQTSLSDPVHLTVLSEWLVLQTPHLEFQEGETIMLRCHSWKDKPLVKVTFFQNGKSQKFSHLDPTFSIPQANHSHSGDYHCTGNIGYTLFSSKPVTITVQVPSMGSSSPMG

| IIb-Fold (fold change in affinity over wild-type) (fold over wild-type) (FcγRIIb [1]) | IIaR-Fold (fold change in affinity over wild-type) (fold over wild-type) (FcγRIIaR) | IIb/IIaR Selectivity (IIb-Fold/IIaR-Fold) (FcγRIIb [2]) | Kd [3] [nM] | Kd [4] [nM] | C1q Binding (% WT) (C1q (human)) | Substance |
| --- | --- | --- | --- | --- | --- | --- |
| 7.1 | 5.7 | 1.2 | – | – | – | Variant 19511 (chain A: G236N_G237F / chain B: S239D_H268D), one-armed trastuzumab antibody, Scaffold 2 |
| 7.9 | 3.2 | 2.5 | – | – | – | Variant 19512 (chain A: none / chain B: G236N_S239D_H268D), one-armed trastuzumab antibody, Scaffold 2 |
| 4.2 | 2.5 | 1.7 | – | – | – | Variant 19514 (chain A: none / chain B: G236H_S239D_H268D), one-armed trastuzumab antibody, Scaffold 2 |
| 10.3 | 30.9 | 0.3 | – | – | – | Variant 19519 (chain A: G236E / chain B: S239D_H268D), one-armed trastuzumab antibody, Scaffold 2 |
| 26.5 | 17.5 | 1.5 | – | – | – | Variant 19520 (chain A: none / chain B: G236E_S239D_H268D), one-armed trastuzumab antibody, Scaffold 2 |
| 18.6 | 6.7 | 2.8 | – | – | – | Variant 19528 (chain A: G236N / chain B: G236S_S239D_H268D), one-armed trastuzumab antibody, Scaffold 2 |
| 3.7 | 1.6 | 2.3 | – | – | – | Variant 19531 (chain A: G236D / chain B: G236H_S239D_H268D), one-armed trastuzumab antibody, Scaffold 2 |
| – | – | – | 21 | 67 | – | Variant 26701 (A_E269Y_strat2), one-armed trastuzumab antibody |
| – | – | – | 26 | 83 | – | Variant 26705 (A_E269N_strat2), one-armed trastuzumab antibody |
| – | – | – | 20 | 61 | – | Variant 26706 (A_E269D_strat2), one-armed trastuzumab antibody |
| – | – | – | 22 | 69 | – | Variant 26709 (A_E269H_strat2), one-armed trastuzumab antibody |
| – | – | – | 27 | 78 | – | Variant 26710 (A_E269P_strat2), one-armed trastuzumab antibody |
| – | – | – | 53 | 180 | – | Variant 26711 (A_D270G_strat2), one-armed trastuzumab antibody |
| – | – | – | – | – | 170 | Variant 32263 (trastuzumab FSA; chain A L235A_strat1, chain B G330*K_strat1) (antibody) |
| – | – | – | – | – | 210 | Variant 32268 (trastuzumab FSA; chain A S239T_strat1, chain B G330*K_strat1) (antibody) |

Further lines, the substance ahead of its results:

| Substance | IIb-Fold (fold change in affinity over wild-type) (fold over wild-type) (FcγRIIb [1]) | IIaR-Fold (fold change in affinity over wild-type) (fold over wild-type) (FcγRIIaR) | IIb/IIaR Selectivity (IIb-Fold/IIaR-Fold) (FcγRIIb [2]) | Kd [3] [nM] | Kd [4] [nM] | C1q Binding (% WT) (C1q (human)) |
| --- | --- | --- | --- | --- | --- | --- |
| Variant 19508 (chain A: none / chain B: S239D_H268D), one-armed trastuzumab antibody, Scaffold 2 | 31.1 | 25.6 | 1.2 | – | – | – |
| Variant 19509 (chain A: G236N / chain B: S239D_H268D), one-armed trastuzumab antibody, Scaffold 2 | 31.8 | 9.7 | 3.3 | – | – | – |
| Variant 19510 (chain A: G236N_G237A / chain B: S239D_H268D), one-armed trastuzumab antibody, Scaffold 2 | 5.5 | 1.8 | 3.1 | – | – | – |
| Variant 19513 (chain A: G236H / chain B: S239D_H268D), one-armed trastuzumab antibody, Scaffold 2 | 8.2 | 13.4 | 0.6 | – | – | – |
| Variant 19515 (chain A: G236Q / chain B: S239D_H268D), one-armed trastuzumab antibody, Scaffold 2 | 9.6 | 14.2 | 0.7 | – | – | – |
| Variant 19517 (chain A: G236D / chain B: S239D_H268D), one-armed trastuzumab antibody, Scaffold 2 | 30.5 | 11.6 | 2.6 | – | – | – |
| Variant 19518 (chain A: none / chain B: G236D_S239D_H268D), one-armed trastuzumab antibody, Scaffold 2 | 32.9 | 14.7 | 2.2 | – | – | – |
| Variant 19521 (chain A: G236N / chain B: G236D_S239D_H268D), one-armed trastuzumab antibody, Scaffold 2 | 37.6 | 5.5 | 6.8 | – | – | – |
| Variant 19523 (chain A: G236D / chain B: G236N_S239D_H268D), one-armed trastuzumab antibody, Scaffold 2 | 6.9 | 1.9 | 3.6 | – | – | – |
| Variant 19524 (chain A: G236Q / chain B: G236D_S239D_H268D), one-armed trastuzumab antibody, Scaffold 2 | 10.3 | 8.9 | 1.2 | – | – | – |
| Variant 19525 (chain A: G236D / chain B: G236Q_S239D_H268D), one-armed trastuzumab antibody, Scaffold 2 | 7.7 | 2.1 | 3.7 | – | – | – |
| Variant 19526 (chain A: G236D / chain B: G236K_S239D_H268D), one-armed trastuzumab antibody, Scaffold 2 | 1.4 | 0.4 | 3.5 | – | – | – |
| Variant 19527 (chain A: G236N / chain B: G236K_S239D_H268D), one-armed trastuzumab antibody, Scaffold 2 | 1.2 | 0.2 | 6 | – | – | – |
| Variant 19694 (chain A: none / chain B: G236D_G237F_S239D_H268D), one-armed trastuzumab antibody, Scaffold 2 | 53.5 | 18.2 | 2.9 | – | – | – |
| Variant 19699 (chain A: G236D_G237F / chain B: G236D_G237F), one-armed trastuzumab antibody, Scaffold 2 | 2.1 | 0.3 | 7 | – | – | – |
| Variant 26702 (A_E269T_strat2), one-armed trastuzumab antibody | – | – | – | 26 | 64 | – |
| Variant 26703 (A_E269S_strat2), one-armed trastuzumab antibody | – | – | – | 24 | 60 | – |
| Variant 26704 (A_E269Q_strat2), one-armed trastuzumab antibody | – | – | – | 22 | 66 | – |
| Variant 26707 (A_E269R_strat2), one-armed trastuzumab antibody | – | – | – | 23 | 77 | – |
| Variant 26708 (A_E269K_strat2), one-armed trastuzumab antibody | – | – | – | 22 | 70 | – |
| Variant 26712 (A_D270A_strat2), one-armed trastuzumab antibody | – | – | – | 29 | 80 | – |
| Variant 32255 (trastuzumab FSA; chain A S239T_strat1, chain B D329*I_F328*Y_strat1) (antibody) | – | – | – | – | – | 194 |
| Variant 32256 (trastuzumab FSA; chain A A237D_strat1, chain B G330*K_strat1) (antibody) | – | – | – | – | – | 124 |
| Variant 32257 (trastuzumab FSA; chain A A237E_strat1, chain B G330*K_strat1) (antibody) | – | – | – | – | – | 145 |
| Variant 32260 (trastuzumab FSA; chain A L234D_strat1, chain B G330*K_strat1) (antibody) | – | – | – | – | – | 189 |
| Variant 32261 (trastuzumab FSA; chain A L234Q_strat1, chain B G330*K_strat1) (antibody) | – | – | – | – | – | 209 |
| Variant 32273 (trastuzumab FSA; chain A L235R_strat2, chain B G237L_strat2) (antibody) | – | – | – | – | – | 2 |
| Variant 32277 (trastuzumab FSA; chain A S239G_strat2, chain B G237L_strat2) (antibody) | – | – | – | – | – | 0 |
